Source: patent EP4703390A1

Tests used:
[1] = target: EGFR and c-Met on the surface of tumor cells (human) (UniProt P00533); assay: flow cytometry, A431 cells; hIgG1 negative control, EC50 could not be fitted
[2] = target: EGFR and c-Met on the surface of tumor cells (human) (UniProt P00533); assay: cell-based or functional assay
[3] = target: EGFR and c-Met on the surface of tumor cells (human) (UniProt P00533); assay: flow cytometry, NCI-H1993 cells; hIgG1 negative control, EC50 could not be fitted
[4] = target: EGFR and c-Met on the surface of tumor cells (human) (UniProt P00533); assay: flow cytometry, NCI-H1975 cells; hIgG1 negative control, EC50 could not be fitted

Top(MFI) [1]: 168000 MFI | endocytic activity Top(MFI), A431 cells (negative control) [2]: 118000 MFI | endocytic activity Top(MFI), NCI-H441 cells (negative control) [2]: 97500 MFI | endocytic activity Top(MFI), NCI-H1975 cells (negative control) [2]: 110000 MFI | Top(MFI) [3]: 31200 MFI | Top(MFI) [4]: 38700 MFI
Substance: hIgG1 (Biointron, Cat. No. B117901) (antibody)
